According to patent publication US20200339690A1 (JOUNCE THERAPEUTICS, published 2020):

Legend:
[1] = biological target: T1, human LILRA6 (human, UniProt Q6PI73 24-481); experiment: flow cytometry, LILRA6 CHOs
T1 construct: Over-expressed on CHO-s cells; also called hLILRA6

[2] = biological target: T2, Rhesus Monocytes / Rhesus Neutrophils (Macaca mulatta); experiment: flow cytometry, rhesus whole blood, neutrophils
T2 construct: cell surface, primary blood cells; also called LILRB2+ populations in rhesus whole blood

[3] = biological target: T3, human LILRB2 expressed on cells (human, UniProt Q8N423 22-597); experiment: blocking of HLA-G tetramer on LILRB2 CHOs, flow cytometry, mAb 10 ug/mL
T3 construct: CHO-s cells over-expressing full-length human LILRB2, or primary human macrophages and dendritic cells; also called hLILRB2-CHO-s; hLILRB2+ CHO-s
Protocol: (§1) In the secondary screen, 1×10⁵ CHO-s cells over-expressing human LILRB2 were plated in 96-well round-bottom tissue culture-treated plate and washed twice with 1×DPBS (Gibco) and incubated with 10 μg/mL primary antibody (anti-LILRB2 mAbs or control) prepared in 50 μL FACS buffer (1×DPBS containing 2% HI-FBS (Sigma)+0.05% Sodium Azide). After incubation with mAbs for 30 minutes at 4° C., cells were washed twice in FACS buffer and then resuspended in 50 μL of FACS buffer containing 5 μg/mL APC-conjugated HLA-A2 or HLA-G tetramer (Fred Hutch). Cells were incubated protected from light for 30-60 minutes at 4° C. After incubation with tetramer, cells were washed in FACS buffer and re-suspended in fix buffer (1.5% paraformaldehyde diluted in 1×DPBS). Samples were analyzed using the Celesta flow cytometer analyzer (BD Biosciences). Data represent percent tetramer blocked by mAbs relative to tetramer alone, calculated according to the following equation: […]

[4] = biological target: T4, human LILRB1 (human, UniProt Q8NHL6 24-650); experiment: flow cytometry, LILRB1 CHOs
T4 construct: Over-expressed on CHO-s cells; also called hLILRB1

[5] = biological target: T5, human LILRB5 (human, UniProt O75023 24-590); experiment: flow cytometry, LILRB5 CHOs
T5 construct: Over-expressed on CHO-s cells; also called hLILRB5

[6] = biological target: T6, human LILRB4 (human, UniProt Q8NHJ6 22-448); experiment: flow cytometry, LILRB4 CHOs
T6 construct: Over-expressed on CHO-s cells; also called hLILRB4

[7] = biological target: T3, human LILRB2 expressed on cells; experiment: cell-based or functional assay
[8] = biological target: T2, Rhesus Monocytes / Rhesus Neutrophils; experiment: flow cytometry, rhesus whole blood, monocytes
[9] = biological target: T3, human LILRB2 expressed on cells; experiment: flow cytometry, human whole blood, neutrophils
[10] = biological target: T3, human LILRB2 expressed on cells; experiment: blocking of HLA-A2 tetramer on LILRB2 CHOs, flow cytometry, mAb 10 ug/mL
Protocol: as §1

[11] = biological target: T7, Cyno Monocytes / Cyno Neutrophils (Macaca fascicularis); experiment: flow cytometry, cyno whole blood, monocytes
T7 construct: cell surface, primary blood cells; also called LILRB2+ populations in cyno whole blood

[12] = biological target: T7, Cyno Monocytes / Cyno Neutrophils; experiment: flow cytometry, cyno whole blood, neutrophils
[13] = biological target: T8, human LILRB3 (human, UniProt O75022 24-631); experiment: flow cytometry, LILRB3 CHOs
T8 construct: Over-expressed on CHO-s cells; also called hLILRB3

[14] = biological target: T3, human LILRB2 expressed on cells; experiment: flow cytometry, human whole blood, monocytes
[15] = biological target: human LILRB2-His (human, UniProt Q8N423 22-460); experiment: SPR, Sierra Sensors MASS-2; antibody captured on anti-human Fc, LILRB2-His 65 to 0.27 nM, 1:1 Langmuir fit
[16] = biological target: T9, human LILRA2 (human, UniProt Q8N149 24-483); experiment: flow cytometry, LILRA2 CHOs
T9 construct: Over-expressed on CHO-s cells; also called hLILRA2

[17] = biological target: T3, human LILRB2 expressed on cells; experiment: flow cytometry, LILRB2 CHOs
[18] = biological target: T10, human LILRA4 (human, UniProt P59901 24-499); experiment: flow cytometry, LILRA4 CHOs
T10 construct: Over-expressed on CHO-s cells; also called hLILRA4

[19] = biological target: T11, human LILRA1 (human, UniProt O75019 17-489); experiment: flow cytometry, LILRA1 CHOs
T11 construct: Over-expressed on CHO-s cells; also called hLILRA1

[20] = biological target: T12, human LILRA3 (human, UniProt Q8N6C8 24-439); experiment: flow cytometry, LILRA3 CHOs
T12 construct: Over-expressed on CHO-s cells; also called hLILRA3

[21] = biological target: T13, human LILRA5 (human, UniProt A6NI73 42-299); experiment: flow cytometry, LILRA5 CHOs
T13 construct: Over-expressed on CHO-s cells; also called hLILRA5
T13 sequence (A6NI73 42-299 limits assumed): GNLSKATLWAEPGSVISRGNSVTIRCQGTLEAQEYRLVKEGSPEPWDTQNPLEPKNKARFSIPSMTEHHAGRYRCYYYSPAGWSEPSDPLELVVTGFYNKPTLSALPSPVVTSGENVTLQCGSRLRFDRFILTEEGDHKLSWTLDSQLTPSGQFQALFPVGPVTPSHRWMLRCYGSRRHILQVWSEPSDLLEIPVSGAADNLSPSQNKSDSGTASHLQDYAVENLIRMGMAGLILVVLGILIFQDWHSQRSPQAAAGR

T3 sequence (Q8N423 other isoform, or with tags, fused parts or gaps limits assumed): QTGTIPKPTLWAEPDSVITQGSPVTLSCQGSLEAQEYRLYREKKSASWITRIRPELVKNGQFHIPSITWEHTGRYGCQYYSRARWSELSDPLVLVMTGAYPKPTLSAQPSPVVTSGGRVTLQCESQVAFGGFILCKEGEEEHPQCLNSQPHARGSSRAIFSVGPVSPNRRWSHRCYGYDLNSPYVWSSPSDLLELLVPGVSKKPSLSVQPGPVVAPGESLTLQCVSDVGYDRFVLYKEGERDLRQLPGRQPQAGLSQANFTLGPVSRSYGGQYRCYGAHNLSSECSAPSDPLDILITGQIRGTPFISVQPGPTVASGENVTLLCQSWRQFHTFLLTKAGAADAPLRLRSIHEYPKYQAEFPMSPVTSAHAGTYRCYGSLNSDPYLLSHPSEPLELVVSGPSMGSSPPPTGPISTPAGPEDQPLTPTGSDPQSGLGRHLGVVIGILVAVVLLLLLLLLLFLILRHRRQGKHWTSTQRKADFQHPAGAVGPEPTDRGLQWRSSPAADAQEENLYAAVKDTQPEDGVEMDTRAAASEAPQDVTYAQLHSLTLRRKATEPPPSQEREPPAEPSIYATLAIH
Sequence of human LILRB2-His (Q8N423 other isoform, or with tags, fused parts or gaps): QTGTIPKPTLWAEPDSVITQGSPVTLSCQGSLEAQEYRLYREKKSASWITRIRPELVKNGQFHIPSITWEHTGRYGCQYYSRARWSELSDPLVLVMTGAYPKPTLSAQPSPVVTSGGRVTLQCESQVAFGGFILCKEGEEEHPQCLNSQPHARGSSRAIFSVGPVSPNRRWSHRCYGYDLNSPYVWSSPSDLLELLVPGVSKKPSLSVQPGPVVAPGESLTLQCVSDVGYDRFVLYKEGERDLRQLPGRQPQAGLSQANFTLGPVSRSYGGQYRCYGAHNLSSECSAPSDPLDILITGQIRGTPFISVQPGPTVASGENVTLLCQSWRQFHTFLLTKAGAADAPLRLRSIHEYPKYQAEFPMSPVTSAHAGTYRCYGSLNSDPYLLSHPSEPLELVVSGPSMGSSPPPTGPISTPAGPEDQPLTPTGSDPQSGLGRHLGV
T4 sequence (Q8NHL6 24-650 limits assumed): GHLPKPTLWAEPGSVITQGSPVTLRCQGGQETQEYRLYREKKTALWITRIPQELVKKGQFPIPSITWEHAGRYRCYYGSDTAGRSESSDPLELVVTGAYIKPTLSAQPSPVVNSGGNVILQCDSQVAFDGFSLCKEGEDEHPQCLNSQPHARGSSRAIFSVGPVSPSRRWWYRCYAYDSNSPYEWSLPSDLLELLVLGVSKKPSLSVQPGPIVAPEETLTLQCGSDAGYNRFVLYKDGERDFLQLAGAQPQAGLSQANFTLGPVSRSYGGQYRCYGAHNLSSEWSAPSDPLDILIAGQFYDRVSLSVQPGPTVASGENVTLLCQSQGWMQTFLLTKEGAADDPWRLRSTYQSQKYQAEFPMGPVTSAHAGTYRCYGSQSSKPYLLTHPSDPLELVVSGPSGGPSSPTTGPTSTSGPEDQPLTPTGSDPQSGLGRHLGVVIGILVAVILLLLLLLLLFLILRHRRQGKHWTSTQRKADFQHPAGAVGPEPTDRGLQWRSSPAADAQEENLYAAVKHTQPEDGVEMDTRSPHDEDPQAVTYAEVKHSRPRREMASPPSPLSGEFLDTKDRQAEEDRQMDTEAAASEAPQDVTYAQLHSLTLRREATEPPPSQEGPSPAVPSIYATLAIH
T1 sequence (Q6PI73 24-481 limits assumed): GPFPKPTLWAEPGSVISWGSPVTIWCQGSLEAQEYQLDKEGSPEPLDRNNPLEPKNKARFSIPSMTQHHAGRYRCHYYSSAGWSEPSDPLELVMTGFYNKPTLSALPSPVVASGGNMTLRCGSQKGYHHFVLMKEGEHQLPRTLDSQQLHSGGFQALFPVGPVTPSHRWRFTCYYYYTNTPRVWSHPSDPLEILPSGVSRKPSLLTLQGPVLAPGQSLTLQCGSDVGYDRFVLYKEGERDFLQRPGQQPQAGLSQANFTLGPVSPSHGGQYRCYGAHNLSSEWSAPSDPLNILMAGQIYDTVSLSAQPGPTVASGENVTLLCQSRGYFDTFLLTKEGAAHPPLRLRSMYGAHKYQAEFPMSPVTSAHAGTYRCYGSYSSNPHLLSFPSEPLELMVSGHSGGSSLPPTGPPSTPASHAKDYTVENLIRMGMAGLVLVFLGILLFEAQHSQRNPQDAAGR
T5 sequence (O75023 24-590 P542R limits assumed): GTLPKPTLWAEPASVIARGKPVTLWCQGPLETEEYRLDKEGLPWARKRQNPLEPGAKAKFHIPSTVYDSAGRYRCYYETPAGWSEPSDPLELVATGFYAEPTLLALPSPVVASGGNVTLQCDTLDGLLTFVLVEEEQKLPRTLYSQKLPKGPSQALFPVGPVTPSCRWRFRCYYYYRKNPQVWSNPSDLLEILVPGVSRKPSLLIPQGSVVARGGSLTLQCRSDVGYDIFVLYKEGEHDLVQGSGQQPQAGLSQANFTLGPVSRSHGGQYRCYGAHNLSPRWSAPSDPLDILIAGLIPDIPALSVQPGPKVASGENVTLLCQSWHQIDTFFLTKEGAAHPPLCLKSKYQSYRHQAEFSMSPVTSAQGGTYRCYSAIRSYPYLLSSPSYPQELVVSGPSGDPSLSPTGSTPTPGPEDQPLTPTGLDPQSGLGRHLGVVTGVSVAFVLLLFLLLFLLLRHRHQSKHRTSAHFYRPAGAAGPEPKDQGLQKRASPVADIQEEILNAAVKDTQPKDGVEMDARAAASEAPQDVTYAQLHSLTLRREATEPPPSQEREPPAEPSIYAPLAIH
T11 sequence (O75019 17-489 limits assumed): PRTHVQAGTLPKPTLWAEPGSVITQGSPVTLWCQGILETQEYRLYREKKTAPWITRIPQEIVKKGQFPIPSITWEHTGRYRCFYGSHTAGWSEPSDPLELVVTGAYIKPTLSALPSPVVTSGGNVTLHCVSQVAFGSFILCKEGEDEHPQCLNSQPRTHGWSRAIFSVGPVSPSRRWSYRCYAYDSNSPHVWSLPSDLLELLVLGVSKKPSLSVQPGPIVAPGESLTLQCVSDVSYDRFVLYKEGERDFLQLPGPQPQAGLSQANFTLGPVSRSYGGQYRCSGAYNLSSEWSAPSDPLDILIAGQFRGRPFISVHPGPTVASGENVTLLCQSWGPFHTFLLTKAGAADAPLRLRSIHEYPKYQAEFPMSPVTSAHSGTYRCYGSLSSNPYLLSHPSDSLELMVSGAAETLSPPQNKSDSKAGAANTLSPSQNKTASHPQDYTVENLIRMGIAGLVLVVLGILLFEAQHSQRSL
T9 sequence (Q8N149 24-483 S135L limits assumed): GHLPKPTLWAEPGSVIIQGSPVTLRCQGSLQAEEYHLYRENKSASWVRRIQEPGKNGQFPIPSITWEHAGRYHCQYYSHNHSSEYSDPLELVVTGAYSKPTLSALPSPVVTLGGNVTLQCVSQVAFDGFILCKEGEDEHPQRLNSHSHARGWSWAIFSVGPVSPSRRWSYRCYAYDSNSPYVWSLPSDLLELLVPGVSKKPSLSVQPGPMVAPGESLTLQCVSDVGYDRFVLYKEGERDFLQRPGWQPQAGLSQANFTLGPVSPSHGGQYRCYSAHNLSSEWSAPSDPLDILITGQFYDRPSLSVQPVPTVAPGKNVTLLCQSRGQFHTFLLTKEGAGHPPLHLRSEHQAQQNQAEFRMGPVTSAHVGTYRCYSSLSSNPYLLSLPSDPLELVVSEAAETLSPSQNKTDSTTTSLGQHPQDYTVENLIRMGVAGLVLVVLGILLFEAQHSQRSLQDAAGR
T10 sequence (P59901 other isoform, or with tags, fused parts or gaps limits assumed): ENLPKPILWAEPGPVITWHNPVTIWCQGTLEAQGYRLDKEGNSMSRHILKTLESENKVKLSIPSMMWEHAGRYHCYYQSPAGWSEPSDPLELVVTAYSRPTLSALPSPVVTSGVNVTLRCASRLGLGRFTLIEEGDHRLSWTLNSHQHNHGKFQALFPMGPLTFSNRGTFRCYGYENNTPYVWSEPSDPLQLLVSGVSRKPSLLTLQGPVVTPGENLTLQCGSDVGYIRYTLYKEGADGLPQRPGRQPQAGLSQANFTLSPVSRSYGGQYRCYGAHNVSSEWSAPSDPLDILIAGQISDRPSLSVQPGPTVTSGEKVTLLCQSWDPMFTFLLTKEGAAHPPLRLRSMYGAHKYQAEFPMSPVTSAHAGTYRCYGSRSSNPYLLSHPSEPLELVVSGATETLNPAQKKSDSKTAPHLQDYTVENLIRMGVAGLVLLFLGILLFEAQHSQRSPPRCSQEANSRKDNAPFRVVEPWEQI
T12 sequence (Q8N6C8 24-439 limits assumed): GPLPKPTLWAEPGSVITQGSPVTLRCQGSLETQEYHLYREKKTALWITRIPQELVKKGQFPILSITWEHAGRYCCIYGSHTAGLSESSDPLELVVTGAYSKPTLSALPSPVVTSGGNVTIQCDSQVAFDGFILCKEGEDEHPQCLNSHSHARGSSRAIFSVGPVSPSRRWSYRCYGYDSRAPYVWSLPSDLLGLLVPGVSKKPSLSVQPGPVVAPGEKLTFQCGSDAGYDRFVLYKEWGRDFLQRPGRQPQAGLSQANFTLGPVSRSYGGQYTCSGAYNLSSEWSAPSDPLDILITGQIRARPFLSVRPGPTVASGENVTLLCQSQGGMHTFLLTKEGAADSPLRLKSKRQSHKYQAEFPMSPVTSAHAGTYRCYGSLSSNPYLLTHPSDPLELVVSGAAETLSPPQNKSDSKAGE

B1: J-19 (antibody, human IgG4 S228P, kappa, V domains shown)
VH: QVTLKESGPGILQPSHTLSLTCSFSGFSLNTYAMGVSWIRQPSGKGLEWLASIWWNGNKYNNPSLKSRLTVSKDTSNNQAFLKVTSVDTADTATYYCAHSRIIRFTDYVMDAWGQGASVTVSS
VL: DIQMTQSPASLSTFLGEPVTIECRASEDIYNDLAWYQQKPGKSPQLLIYNANSLHTGVPSRFSGSGSGTQYSLKINSLQSEDVASYFCQQYYDYPLTFGSGTKLEIKR
notes: Human IgG4 chimera from a rat immunization; also called J-19.h
binding (fold over iso) [1]: 1.07 fold over iso
binding result [1]: no binding
Rhesus Neutrophils binding (fold over iso) [2]: 21.9 fold over iso
HLA-G:LILRB2 CHOs blocking (% blocked) [3]: 97 % blocked
binding (fold over iso) [4]: 1.05 fold over iso
binding result [4]: no binding
binding (fold over iso) [5]: 1.19 fold over iso
binding result [5]: no binding
binding (fold over iso) [6]: 1.03 fold over iso
binding result [6]: no binding
CCL2 production (fold over LPS alone) [7]: 1.69 fold over LPS alone
IL-6 production (fold over LPS alone) [7]: 2.72 fold over LPS alone
IL-10 production (fold over LPS alone) [7]: 0.8 fold over LPS alone
TNFa production (fold over LPS alone) [7]: 8.9 fold over LPS alone
Rhesus Monocytes binding (fold over iso) [8]: 6.79 fold over iso
Human Neutrophils binding (fold over iso) [9]: 4.5 fold over iso
HLA-A2:LILRB2 CHOs blocking (% blocked) [10]: 95.3 % blocked
Cyno Monocytes binding (fold over iso) [11]: 17.9 fold over iso
Cyno Neutrophils binding (fold over iso) [12]: 2.35 fold over iso
binding (fold over iso) [13]: 1.09 fold over iso
binding result [13]: no binding
Human Monocytes binding (fold over iso) [14]: 12.3 fold over iso
Kd [15]: 2.62 nM
koff [15]: 0.00135 s⁻¹
kon [15]: 515000 M⁻¹ s⁻¹
binding (fold over iso) [16]: -0.51 fold over iso
binding result [16]: no binding
binding (fold over iso) [17]: 3.78 fold over iso
binding (fold over iso) [18]: -26.8 fold over iso
binding result [18]: no binding
binding (fold over iso) [19]: -3.31 fold over iso
binding result [19]: no binding
binding (fold over iso) [20]: 0.97 fold over iso
binding result [20]: no binding
binding (fold over iso) [21]: -0.62 fold over iso
binding result [21]: no binding
